{
  "source": "patent US20250076311A1",
  "about": "(Chugai, published 2025)",
  "binders": {"B1": {"name": "M103205H795-MY260/M103202L889-SK1 (antibody)", "heavy": "QVTLKESGPVLVKPTETLTLTCTVSGIDLSHDDISWVRQAPGKGLEWVGIISYAGSTYYASWAKGRLTISKDTSKNQVVLTMTNMDPVDTATYYCARGVPAYSHGGDLWGQGTLVTVSSASTKGPSVFPLAPSSKSTSGGTAALGCLVKDYFPEPVTVSWNSGALTSGVHTFPAVLQSSGLYSLSSVVTVPSSSLGTQTYICNVNHKPSNTKVDKKVEPKSCDKTHTCPPCPAPELLMGPSVFLFPPKPKDTLMISRTPEVTCVVVDVSDEDPEVKFNWYVDGVEVHNAKTKPREEQYNSTYRVVSVLTVLHQDWLNGKEYKCKVSNKALPKPIEKTISKAKGQPREPQVYTLPPSREEMTKNQVSLTCLVKGFYPSDIAVEWESNGQPENNYKTTPPVLDSDGSFFLYSKLTVDKSRWQQGNVFSCSVMHEALHNHYTQKSLSLSP", "light": "DIVMTQSPATLSLSPGERATLSCTSSQSVYHANWLSWFQQKPGQPPKLLIYWASTLAYGVPSRFSGSGSGTDFTLTISSLQPEDAATYYCAGGYGGGRYAFGQGTKVEIKRTVAAPSVFIFPPSDEQLKSGTASVVCLLNNFYPREAKVQWKVDNALQSGNSQESVTEQDSKDSTYSLSSTLTLSKADYEKHKVYACEVTHQGLSSPVTKSFNRGEC"}, "B2": {"name": "M103205H795-MY262/M103202L889-SK1 (antibody, human IgG1, kappa, name in EU numbering)", "heavy": "B1 heavy with M238V", "light": "B1 light", "notes": "Asn at EU 236 of MY201 replaced with Val"}, "B3": {"name": "M103205H795-MY263/M103202L889-SK1 (antibody, human IgG1, kappa, name in EU numbering)", "heavy": "B1 heavy with M238Q", "light": "B1 light", "notes": "Asn at EU 236 of MY201 replaced with Gln"}, "B4": {"name": "M103205H795-MY264/M103202L889-SK1 (antibody, human IgG1, kappa, name in EU numbering)", "heavy": "B1 heavy with M238L", "light": "B1 light", "notes": "Asn at EU 236 of MY201 replaced with Leu"}, "B5": {"name": "MS1032LO10-SG1 (antibody, human IgG1, kappa, V domains shown)", "VH": "QVTLKESGPVLVKPTETLTLTCTVSGIDLSHTDISWVRQAPGKGLEWVGIISYAGKTYYASWAKKRLTISKDTSKNQVVLTMTNMDPVDTATYYCARGVPAYSHGGDLWGQGTLVTVSS", "VL": "DIVMTQSPATLSLSPGERATLSCTSSQSVYHANWLSWFQQKPGQPPKLLIYWASTLAYGVPSRFSGSGSGTDFTLTISSLQPEDAATYYCAGGYGGGRYAFGQGTKVEIKR"}, "B6": {"name": "M103205H795-MY476/M103202L889-SK1 (antibody)", "chain 1": "B1 heavy with A233Y, M238T", "chain 2": "B1 light"}},
  "key": {"[1]": {"molecular_target": "T1, human FcγRIIaR extracellular domain, His-tagged (human, UniProt P12318 34-217)", "T1 construct": "also called human FcgRIIaR; FcγRIIa (type R); not shown: His-tag added to the C-terminus", "T1 chain": "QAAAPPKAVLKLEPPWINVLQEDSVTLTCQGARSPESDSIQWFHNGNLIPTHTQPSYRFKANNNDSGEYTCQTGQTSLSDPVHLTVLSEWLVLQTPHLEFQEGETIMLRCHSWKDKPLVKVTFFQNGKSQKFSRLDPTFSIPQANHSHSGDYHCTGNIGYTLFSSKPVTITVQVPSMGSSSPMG", "assay": "SPR (BIACORE); KD of SG1 divided by KD of the variant", "method": "(§1) The kinetic analysis of interactions between these antibodies and FcγR was carried out using BIACORE® T200 or BIACORE® 4000 (GE Healthcare). HBS-EP+ (GE Healthcare) was used as the running buffer, and the measurement temperature was set to 25° C. […] After the measurement, the antibody captured on the chip was washed off by allowing reaction with 10 mM glycine-HCl, pH1.5 and 25 mM NaOH so that the chip was regenerated and used repeatedly. The sensorgrams obtained as measurement results were analyzed by the 1:1 Langmuir binding model using the BIACORE® Evaluation Software to calculate the binding rate constant ka (L/mol/s) and dissociation rate constant kd (1/s), and the dissociation constant KD (mol/L) was calculated from these values. […] Regarding such interactions, KD values were calculated using the following 1:1 binding model described in BIACORE® T100 Software Handbook BR1006-48 Edition AE."}, "[2]": {"molecular_target": "T2, human FcγRIIaH extracellular domain, His-tagged (human, UniProt P12318 34-217)", "T2 construct": "also called human FcgRIIaH; FcγRIIa (type H); not shown: His-tag added to the C-terminus", "T2 sequence": "T1 chain with R134H", "assay": "SPR (BIACORE); KD of SG1 divided by KD of the variant", "method": "as §1"}, "[3]": {"molecular_target": "T3, cynomolgus monkey FcγRIIa3 extracellular domain, His-tagged (cynomolgus monkey)", "T3 construct": "also called cyno FcgRIIa3; cynoFcγRIIa3; not shown: His-tag added to the C-terminus", "T3 chain": "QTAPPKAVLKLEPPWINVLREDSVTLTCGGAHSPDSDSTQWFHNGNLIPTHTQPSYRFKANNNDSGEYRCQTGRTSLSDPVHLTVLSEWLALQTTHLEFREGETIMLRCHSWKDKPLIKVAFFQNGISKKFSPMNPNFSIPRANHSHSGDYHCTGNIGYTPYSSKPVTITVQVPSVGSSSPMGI", "assay": "SPR (BIACORE); KD of SG1 divided by KD of the variant", "method": "as §1"}, "[4]": {"molecular_target": "T4, cynomolgus monkey FcγRIIIaS extracellular domain, His-tagged (cynomolgus monkey, UniProt A3RFZ7 21-206 (rhesus entry))", "T4 construct": "also called cyno FcgRIIIaS; cynoFcγRIIIaS; not shown: His-tag added to the C-terminus", "T4 sequence (A3RFZ7 21-206)": "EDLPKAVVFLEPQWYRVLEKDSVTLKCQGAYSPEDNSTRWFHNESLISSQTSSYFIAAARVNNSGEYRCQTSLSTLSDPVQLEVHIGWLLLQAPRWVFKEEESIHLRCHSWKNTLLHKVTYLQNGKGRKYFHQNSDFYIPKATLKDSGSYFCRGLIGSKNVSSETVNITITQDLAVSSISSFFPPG", "assay": "SPR (BIACORE), antibody captured on chip, soluble FcgR as analyte, 25 C", "method": "as §1"}, "[5]": {"molecular_target": "T5, human FcγRIIIaV extracellular domain, His-tagged (human, UniProt P08637 17-208)", "T5 construct": "also called human FcgRIIIaV; not shown: His-tag added to the C-terminus", "T5 sequence (P08637 17-208 F176V)": "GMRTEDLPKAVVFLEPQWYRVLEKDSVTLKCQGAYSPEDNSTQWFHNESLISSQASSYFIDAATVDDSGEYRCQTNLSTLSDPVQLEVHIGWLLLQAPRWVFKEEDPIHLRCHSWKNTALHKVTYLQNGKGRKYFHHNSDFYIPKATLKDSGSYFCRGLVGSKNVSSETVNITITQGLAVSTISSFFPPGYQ", "assay": "SPR (BIACORE), antibody captured on chip, soluble FcgR as analyte, 25 C", "method": "as §1"}, "[6]": {"molecular_target": "T4, cynomolgus monkey FcγRIIIaS …", "assay": "SPR (BIACORE); KD of SG1 divided by KD of the variant", "method": "as §1"}, "[7]": {"molecular_target": "T6, human FcγRIIb extracellular domain, His-tagged (human, UniProt P31994 43-217)", "T6 construct": "also called human FcgRIIb; not shown: His-tag added to the C-terminus", "T6 sequence": "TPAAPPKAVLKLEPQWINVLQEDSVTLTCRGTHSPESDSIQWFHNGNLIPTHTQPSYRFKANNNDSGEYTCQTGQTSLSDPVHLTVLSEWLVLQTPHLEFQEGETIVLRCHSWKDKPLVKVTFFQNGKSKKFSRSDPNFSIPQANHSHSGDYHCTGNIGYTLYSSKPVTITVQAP", "assay": "SPR (BIACORE); KD of SG1 divided by KD of the variant", "method": "as §1"}, "[8]": {"molecular_target": "T7, cynomolgus monkey FcγRIIa1 extracellular domain, His-tagged (cynomolgus monkey)", "T7 construct": "also called cyno FcgRIIa1; cynoFcγRIIa1; not shown: His-tag added to the C-terminus", "T7 chain": "T3 chain with T95P, A121T, S128A, P133H, N135D", "assay": "SPR (BIACORE), antibody captured on chip, soluble FcgR as analyte, 25 C", "method": "as §1"}, "[9]": {"molecular_target": "T3, cynomolgus monkey FcγRIIa3 …", "assay": "SPR (BIACORE), antibody captured on chip, soluble FcgR as analyte, 25 C", "method": "as §1"}, "[10]": {"molecular_target": "T5, human FcγRIIIaV extracellular domain, …", "assay": "SPR (BIACORE); KD of SG1 divided by KD of the variant", "method": "as §1"}, "[11]": {"molecular_target": "T7, cynomolgus monkey FcγRIIa1 …", "assay": "SPR (BIACORE); KD of SG1 divided by KD of the variant", "method": "as §1"}, "[12]": {"molecular_target": "T6, human FcγRIIb extracellular domain, …", "assay": "SPR (BIACORE), antibody captured on chip, soluble FcgR as analyte, 25 C", "method": "as §1"}, "[13]": {"molecular_target": "T2, human FcγRIIaH extracellular domain, …", "assay": "SPR (BIACORE), antibody captured on chip, soluble FcgR as analyte, 25 C", "method": "as §1"}, "[14]": {"molecular_target": "T8, cynomolgus monkey FcγRIIb extracellular domain, His-tagged (cynomolgus monkey)", "T8 construct": "also called cyno FcgRIIb; cynoFcγRIIb; not shown: His-tag added to the C-terminus", "T8 chain": "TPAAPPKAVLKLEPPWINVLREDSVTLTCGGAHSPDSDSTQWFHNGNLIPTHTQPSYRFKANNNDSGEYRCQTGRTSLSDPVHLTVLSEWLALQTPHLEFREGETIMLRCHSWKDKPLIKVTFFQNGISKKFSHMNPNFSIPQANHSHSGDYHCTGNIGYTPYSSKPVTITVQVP", "assay": "SPR (BIACORE), antibody captured on chip, soluble FcgR as analyte, 25 C", "method": "as §1"}, "[15]": {"molecular_target": "T9, Mouse latent myostatin (mouse, UniProt O08689 26-267; O08689 268-376, limits assumed)", "T9 sequence 1": "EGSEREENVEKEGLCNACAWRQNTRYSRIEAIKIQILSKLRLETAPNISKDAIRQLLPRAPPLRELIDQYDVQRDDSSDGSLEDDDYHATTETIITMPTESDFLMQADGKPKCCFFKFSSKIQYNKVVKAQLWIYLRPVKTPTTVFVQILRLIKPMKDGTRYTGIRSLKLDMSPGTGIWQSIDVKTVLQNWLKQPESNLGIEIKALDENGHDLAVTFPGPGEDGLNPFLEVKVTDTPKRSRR", "T9 sequence 2": "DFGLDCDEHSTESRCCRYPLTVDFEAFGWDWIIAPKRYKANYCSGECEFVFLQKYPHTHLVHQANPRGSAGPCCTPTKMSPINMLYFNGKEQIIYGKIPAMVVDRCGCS", "assay": "SPR (Biacore T200), 37C, pH 7.4, antibody captured on ProA/G", "method": "ProA/G (Pierce) was immobilized onto all flow cells of a CM4 chip using an amine coupling kit (GE Healthcare). All antibodies and analytes were prepared in ACES pH7.4 or pH5.8 buffer containing 20 mM ACES, 150 mM NaCl, 1.2 mM CaCl₂, 0.05% TWEEN® 20, 0.005% NaN3. […] The sensor surface was regenerated each cycle with 10 mM Glycine HCl pH1.5. Binding affinity was determined by processing and fitting the data to a 1:1 binding model using BIACORE® T200 Evaluation software, version 2.0 (GE Healthcare)."}, "[16]": {"molecular_target": "T10, cynomolgus monkey FcγRIIb extracellular domain with C-terminal His-tag (cynomolgus monkey)", "T10 construct": "also called cyno FcgRIIb; cynoFcγRIIb", "T10 chain": "T8 chain", "assay": "SPR (Biacore), antibody captured, FcgR analyte"}},
  "note": "Numbering of substitutions follows the chain as printed.",
  "data": [
    {"binder": "B1", "values": [
      {"measurement": "KD fold (SG1 = 1)", "setting": "[1]", "value": 0.5, "unit": "fold"},
      {"measurement": "KD fold (SG1 = 1)", "setting": "[2]", "value": 0.7, "unit": "fold"},
      {"measurement": "KD fold (SG1 = 1)", "setting": "[3]", "value": 1.7, "unit": "fold"},
      {"measurement": "Kd", "setting": "[4]", "value": 0.85, "unit": "µM"},
      {"measurement": "Kd", "setting": "[5]", "value": 30, "unit": "µM"}
    ]},
    {"binder": "B2", "values": [
      {"measurement": "KD fold (SG1 = 1)", "setting": "[6]", "value": 0.35, "unit": "fold"},
      {"measurement": "KD fold (SG1 = 1)", "setting": "[7]", "value": 0.3, "unit": "fold"},
      {"measurement": "Kd", "setting": "[8]", "value": 1.5, "unit": "µM"},
      {"measurement": "Kd", "setting": "[9]", "value": 80, "unit": "µM"}
    ]},
    {"binder": "B3", "values": [
      {"measurement": "KD fold (SG1 = 1)", "setting": "[10]", "value": 0.39, "unit": "fold"},
      {"measurement": "Kd", "setting": "[9]", "value": 73, "unit": "µM"}
    ]},
    {"binder": "B4", "values": [
      {"measurement": "KD fold (SG1 = 1)", "setting": "[11]", "value": 0.8, "unit": "fold"},
      {"measurement": "KD fold (SG1 = 1)", "setting": "[3]", "value": 2.1, "unit": "fold"},
      {"measurement": "Kd", "setting": "[12]", "value": 22, "unit": "µM"},
      {"measurement": "Kd", "setting": "[13]", "value": 0.15, "unit": "µM"},
      {"measurement": "Kd", "setting": "[14]", "value": 0.26, "unit": "µM"}
    ]},
    {"binder": "B5", "values": [
      {"measurement": "Kd", "setting": "[15]", "value": 0.000314, "unit": "µM"}
    ]},
    {"binder": "B6", "values": [
      {"measurement": "Kd", "setting": "[16]", "value": 0.39, "unit": "µM"}
    ]}
  ]
}
